Square brackets hold non-standard residues; d marks the D form. Side chains are listed from the residue outwards. Ends that are not written are not given here. * marks the point of attachment. memantine = CC12CC3CC(C)(C1)CC(N*)(C3)C2; disulfide linker = not defined here; Pen = CC(C)(S)[C@H](N)C(=O)O
Key:
5×FAD mice = assay: Number of amyloid plaques in frontal cortex and hippocampus of 5×FAD mice (Thioflavine S); assay type: in vivo; settings: once-daily subcutaneous, 49 days, vs saline
Source text: Amyloid plaques are commonly found in subjects suffering from Alzheimer's and is caused by abnormal levels of the naturally occurring protein beta-amyloid 42 which clump together to form plaques that collect between neurons and disrupt cell function. Thus, patients suffering from Alzheimer's display elevated levels of amyloid plaques. […] Thus, without being bound by any particular theory, the inventors postulate that the conjugated molecule according to the present invention has a neuroprotective role.
Experiments were conducted using female 5×FAD (Jackson Laboratory, 34840-JAX) mice kept on a chow diet (Altromin #1310, Lage, Germany). The pharmacological studies were initiated at 8-week of age and the mice treated with once-daily subcutaneous injections of GLP-1/memantine or saline (control) for 49 days. Specifically, compounds were administered at a volume of 5 μL per gram, mice group housed (n=2-5 mice per cage) and maintained on a 12-hour light-dark cycle (light 6 am-[…]) at a temperature of 21-23° C. For week 5 and 6, the mice were single-housed and transferred to a digitally ventilated cage system. […] Every 6th slide through hippocampus (bregma: −2.80 mm to −0.94 mm) and frontal cortex (bregma: 0.14 mm to 2.96 mm) were collected and stained with Thioflavine S to quantify amyloid plaque deposition.

[1] = test system: primary rat hippocampal neurons; assay: Neuroprotection in primary hippocampal neurons (NMDA-induced neurotoxicity, LDH activity); assay type: cell-based; settings: NMDA 100 μM, 24 hours, GLP-1 1 μM
Description: Primary rat hippocampal neurons were incubated with either buffer, NMDA (to induce neurotoxicity), NDMA+GLP-1 or NMDA+GLP-1/memantine conjugate for 24 hours. Media was harvested and analysed for Lactate Dehydrogenase (LDH) activity as an indirect measure of cellular cytotoxicity.
Primary cultures of hippocampal neurons were prepared from Sprague-Dawley rat fetuses (E18) and cells were diluted in Neurobasal medium containing B27 supplement (5×10^5 cells/mL) in a Poly-L-Lysin pre-coated 24-well cell culture plate. The neurons were kept at 37° C. in a humidified incubator with 5% C02 atmosphere. After 8 days in vitro, cultures were treated with either vehicle, NMDA (100 μM), NMDA+GLP-1 (1 μM) or NMDA+GLP-1/Memantine for 24 hours. Cell culture medium (50 μL) was dispatched to a 96-well ELISA plate and analyzed for Lactate Dehydrogenase (LDH) activity (CytoTox-96, Nonradioactive Cytotoxicity assay, Promega) according to the manufacturer's protocol.

[2] = Body weight progression of 5×FAD Alzheimer's disease mouse model; assay type: in vivo; settings: female 5×FAD mice, 100 nmol/kg/day subcutaneous daily, 49 days
Description: Female wild-type (WT) control mice+vehicle treatment (n=12), 5×FAD AD mice+vehicle treatment and 5×FAD AD mice+GLP-1/memantine (100 nmol/kg/day) treatment were subcutaneously injected daily for 49 days following which brain regions of the mice were dissected and saved for ex vivo analyses.
Experiments were conducted using female 5×FAD (Jackson Laboratory, 34840-JAX) mice kept on a chow diet (Altromin #1310, Lage, Germany). The pharmacological studies were initiated at 8-week of age and the mice treated with once-daily subcutaneous injections of GLP-1/memantine or saline (control) for 49 days with weekly measurements of body weight. Specifically, compounds were administered at a volume of 5 μL per gram, mice group-housed (n=2-5 mice per cage) and maintained on a 12-hour light-dark cycle (light 6 am-[…]) at a temperature of 21-23° C. For week 5 and 6, the mice were single-housed and transferred to a digitally ventilated cage system. For week 7, the mice were re-grouped in groups identical to weeks 0 to 4. Finally, mice were euthanized on day 49, tissues harvested, snap-frozen using liquid nitrogen and stored at −80° C. prior to analyses.

[3] = test system: pro-inflammatory markers IL-1b, IL-6 and TNF-α; assay: Gene expression of pro-inflammatory markers in hippocampus of 5×FAD mice (qPCR); assay type: in vivo; settings: once-daily subcutaneous, 49 days
Description: Expression (as measured by mRNA) of pro-inflammatory markers, IL-1b, IL-6 and TNF-α increased across the board in the 5×FAD AD mouse model.
Experiments were conducted using female 5×FAD (Jackson Laboratory, 34840-JAX) mice kept on a chow diet (Altromin #1310, Lage, Germany). The pharmacological studies were initiated at 8-week of age and the mice treated with once-daily subcutaneous injections of GLP-1/memantine or saline (control) for 49 days with weekly measurements of body weight. Specifically, compounds were administered at a volume of 5 μL per gram, mice group-housed (n=2-5 mice per cage) and maintained on a 12-hour light-dark cycle (light 6 am-[…]) at a temperature of 21-23° C. […]
Hippocampal tissue from Example 3 was homogenized in a Trizol reagent (QIAzol Lysis Reagent, Qiagen) using a stainless steel bead (Qiagen) and a TissueLyser LT (Qiagen) for 3 min at 20 Hz. […] After RNA extraction, RNA content was measured using a NanoDrop 2000 (Thermo Fisher) and 500 ng of RNA was converted into cDNA by mixing FS buffer and DTT (Thermo Fisher) with Random Primers (Sigma-Aldrich) and incubated for 3 min at 70° C. followed by addition of dNTPs, RNase out, Superscript III (Thermo Fisher) and placed in a thermal cycler for 5 min at 25° C., 60 min at 50° C., 15 min at 70° C., and kept at −20° C. until further processing. […]

Substance | number of amyloid plaques in frontal cortex and hippocampus (5×FAD mice) | NMDA-induced neurotoxicity (Lactate Dehydrogenase activity in media as indirect measure of cytotoxicity) [1] | body weight progression [2] | expression (mRNA) of pro-inflammatory markers IL-1b, IL-6 and TNF-α in hippocampus [3]
GLP-1 Pen40/memantine: GLP-1 peptide of SEQ ID NO:1 with Pen40, conjugated to memantine via disulfide linker (penicillamine linked) (HAEGTFTSDVSSYLEEQAAKEFIAWLVKGGPSSGAPPPS[Pen]([disulfide linker-memantine])-NH2; reading uncertain; listed as Homo sapiens) | reduced formation of amyloid plaques | prevents the NMDA-induced neurotoxicity | elicits only a transient weight loss | completely abolishes the induction of inflammation
GLP-1: GLP-1 peptide alone, the unconjugated peptide control in the neuroprotection test [reference compound] |  | but not GLP-1 peptide alone, prevents the NMDA-induced neurotoxicity |  | 

Reference: patent US20250025566A1, “PEPTIDE-DRUG CONJUGATES FOR TREATMENT OF NEURODEGENERATIVE DISEASES” (KØBENHAVNS UNIVERSITET, priority 2021, published 2025)
